This note sets out measurements from the FLAb antibody collection (doi:10.1101/2023.12.08.570889).

What is called Kd is the free concentration of one partner at which half of the binding sites on the other are occupied at equilibrium, for simple one-to-one binding. Read a low Kd as higher affinity.

The target of the test is TSLP, Q969D9. Description: Kd (SPR).

B1: unnamed (protein)
chain 1: QMQLVESGGGVVQPGRSLRLSCAASGFTFRTYGMHWVRQAPGKGLEWVAVIWYDGSNKHYADSVKGRFTITRDNSKNTLNLQMNSLRAEDTAVYYCARAPRYYDAYEAFDVWGQGTMVTVSS
chain 2: SYVLTQPPSVSVAPGQTARITCGGNNLGSKSVHWYQQKPGQAPVLVVYDDSDRPSWIPERFSGSNSGNTATLTISRGEAGDEADYYCQVWDSSSDHVVFGGGTKLTVL
As to B1, the Kd was found to be 33.5 nM.

B2: unnamed (protein)
chain 1: QMQLVESGGGVVQPGRSLRLSCAASGFTFSTYAMHWVRQAPGKGLEWVAVIWYDGSNKHYADSVKGRFTITRDNSKNTLNLQMNSLRAEDTAVYYCARAPRYDEYWEAFDVWGQGTMVTVSS
chain 2: SYVLTQPPSVSVAPGQTARITCGGNNLGSKSVHWYQQKPGQAPVLVVYDDSDRPSWIPERFSGSNSGNTATLTISRGEAGDEADYYCQVWDSSSDHVVFGGGTKLTVL
As for B2, the Kd was 633 nM.

B3: unnamed (protein)
chain 1: QMQLVESGGGVVQPGRSLRLSCAASGFTFSTYAMHWVRQAPGKGLEWVAVIWYDGSNKHYADSVKGRFTITRDNSKNTLNLQMNSLRAEDTAVYYCARSPRYDEYWEAFDVWGQGTMVTVSS
chain 2: SYVLTQPPSVSVAPGQTARITCGGNNLGSKSVHWYQQKPGQAPVLVVYDDSDRPSWIPERFSGSNSGNTATLTISRGEAGDEADYYCQVWDSSSDHVVFGGGTKLTVL
For B3, the Kd worked out at 836 nM. This Kd and that of the molecule before are within 1.5-fold of each other.

B4: unnamed (protein)
chain 1: QMQLVESGGGVVQPGRSLRLSCAASGFTFSTFAMHWVRQAPGKGLEWVAVIWYDGSNKHYADSVKGRFTITRDNSKNTLNLQMNSLRAEDTAVYYCARSPRYYEYYEAFDVWGQGTMVTVSS
chain 2: SYVLTQPPSVSVAPGQTARITCGGNNLGSKSVHWYQQKPGQAPVLVVYDDSDRPSWIPERFSGSNSGNTATLTISRGEAGDEADYYCQVWDSSSDHVVFGGGTKLTVL
In the case of B4, the Kd stood at 44.5 nM.

B5: unnamed (protein)
chain 1: QMQLVESGGGVVQPGRSLRLSCAASGFTFRTYGMHWVRQAPGKGLEWVAVIWYDGSNKHYADSVKGRFTITRDNSKNTLNLQMNSLRAEDTAVYYCARAPRYDDLWEAFDVWGQGTMVTVSS
chain 2: SYVLTQPPSVSVAPGQTARITCGGNNLGSKSVHWYQQKPGQAPVLVVYDDSDRPSWIPERFSGSNSGNTATLTISRGEAGDEADYYCQVWDSSSDHVVFGGGTKLTVL
B5 came in with a Kd of 61.1 nM.

B6: unnamed (protein)
chain 1: QMQLVESGGGVVQPGRSLRLSCAASGFTFRTYGMHWVRQAPGKGLEWVAVIWYDGSNKHYADSVKGRFTITRDNSKNTLNLQMNSLRAEDTAVYYCARSPRYDDYWEAFDVWGQGTMVTVSS
chain 2: SYVLTQPPSVSVAPGQTARITCGGNNLGSKSVHWYQQKPGQAPVLVVYDDSDRPSWIPERFSGSNSGNTATLTISRGEAGDEADYYCQVWDSSSDHVVFGGGTKLTVL
With B6, the Kd was 197 nM.

B7: unnamed (protein)
chain 1: QMQLVESGGGVVQPGRSLRLSCAASGFTFRTYGMHWVRQAPGKGLEWVAVIWYDGSNKHYADSVKGRFTITRDNSKNTLNLQMNSLRAEDTAVYYCARAPRYYYYYEAFDVWGQGTMVTVSS
chain 2: SYVLTQPPSVSVAPGQTARITCGGNNLGSKSVHWYQQKPGQAPVLVVYDDSDRPSWIPERFSGSNSGNTATLTISRGEAGDEADYYCQVWDSSSDHVVFGGGTKLTVL
In the case of B7, the Kd was found to be 52.3 nM.

B8: unnamed (protein)
chain 1: QMQLVESGGGVVQPGRSLRLSCAASGFTFSTYAMHWVRQAPGKGLEWVAVIWYDGSNKHYADSVKGRFTITRDNSKNTLNLQMNSLRAEDTAVYYCARAPRYDWYWEAFDVWGQGTMVTVSS
chain 2: SYVLTQPPSVSVAPGQTARITCGGNNLGSKSVHWYQQKPGQAPVLVVYDDSDRPSWIPERFSGSNSGNTATLTISRGEAGDEADYYCQVWDSSSDHVVFGGGTKLTVL
The molecule B8 showed a Kd of 759 nM.

B9: unnamed (protein)
chain 1: QMQLVESGGGVVQPGRSLRLSCAASGFTFSTFAMHWVRQAPGKGLEWVAVIWYDGSNKHYADSVKGRFTITRDNSKNTLNLQMNSLRAEDTAVYYCARAPRYDERYEAFDVWGQGTMVTVSS
chain 2: SYVLTQPPSVSVAPGQTARITCGGNNLGSKSVHWYQQKPGQAPVLVVYDDSDRPSWIPERFSGSNSGNTATLTISRGEAGDEADYYCQVWDSSSDHVVFGGGTKLTVL
In turn, B9 showed a Kd of 366 nM.

B10: unnamed (protein)
chain 1: QMQLVESGGGVVQPGRSLRLSCAASGFTFSTYAMHWVRQAPGKGLEWVAVIWYDGSNKHYADSVKGRFTITRDNSKNTLNLQMNSLRAEDTAVYYCARAPRYDDYWEAFDVWGQGTMVTVSS
chain 2: SYVLTQPPSVSVAPGQTARITCGGNNLGSKSVHWYQQKPGQAPVLVVYDDSDRPSWIPERFSGSNSGNTATLTISRGEAGDEADYYCQVWDSSSDHVVFGGGTKLTVL
Take B10: the equilibrium dissociation constant (Kd) turned out to be 718 nM.

B11: unnamed (protein)
chain 1: QMQLVESGGGVVQPGRSLRLSCAASGFTFRTYGMHWVRQAPGKGLEWVAVIWYDGSNKHYADSVKGRFTITRDNSKNTLNLQMNSLRAEDTAVYYCARAPRYDDYVEAFDVWGQGTMVTVSS
chain 2: SYVLTQPPSVSVAPGQTARITCGGNNLGSKSVHWYQQKPGQAPVLVVYDDSDRPSWIPERFSGSNSGNTATLTISRGEAGDEADYYCQVWDSSSDHVVFGGGTKLTVL
B11 showed a Kd of 44.6 nM.

B12: unnamed (protein)
chain 1: QMQLVESGGGVVQPGRSLRLSCAASGFTFSTYAMHWVRQAPGKGLEWVAVIWYDGSNKHYADSVKGRFTITRDNSKNTLNLQMNSLRAEDTAVYYCARAPRYDERYEAFDVWGQGTMVTVSS
chain 2: SYVLTQPPSVSVAPGQTARITCGGNNLGSKSVHWYQQKPGQAPVLVVYDDSDRPSWIPERFSGSNSGNTATLTISRGEAGDEADYYCQVWDSSSDHVVFGGGTKLTVL
As to B12, the Kd is 686 nM.

B13: unnamed (protein)
chain 1: QMQLVESGGGVVQPGRSLRLSCAASGFTFSTFAMHWVRQAPGKGLEWVAVIWYDGSNKHYADSVKGRFTITRDNSKNTLNLQMNSLRAEDTAVYYCARAPRYDWYYEAFDVWGQGTMVTVSS
chain 2: SYVLTQPPSVSVAPGQTARITCGGNNLGSKSVHWYQQKPGQAPVLVVYDDSDRPSWIPERFSGSNSGNTATLTISRGEAGDEADYYCQVWDSSSDHVVFGGGTKLTVL
For the molecule B13, the Kd was determined as 90.8 nM.

B14: unnamed (protein)
chain 1: QMQLVESGGGVVQPGRSLRLSCAASGFTFSTFAMHWVRQAPGKGLEWVAVIWYDGSNKHYADSVKGRFTITRDNSKNTLNLQMNSLRAEDTAVYYCARAPRYYDYLEAFDVWGQGTMVTVSS
chain 2: SYVLTQPPSVSVAPGQTARITCGGNNLGSKSVHWYQQKPGQAPVLVVYDDSDRPSWIPERFSGSNSGNTATLTISRGEAGDEADYYCQVWDSSSDHVVFGGGTKLTVL
For B14, the equilibrium dissociation constant (Kd) was 62.6 nM.

B15: unnamed (protein)
chain 1: QMQLVESGGGVVQPGRSLRLSCAASGFTFSTFAMHWVRQAPGKGLEWVAVIWYDGSNKHYADSVKGRFTITRDNSKNTLNLQMNSLRAEDTAVYYCARAPRYYWYYEAFDVWGQGTMVTVSS
chain 2: SYVLTQPPSVSVAPGQTARITCGGNNLGSKSVHWYQQKPGQAPVLVVYDDSDRPSWIPERFSGSNSGNTATLTISRGEAGDEADYYCQVWDSSSDHVVFGGGTKLTVL
With B15, the Kd amounted to 96.6 nM.

B16: unnamed (protein)
chain 1: QMQLVESGGGVVQPGRSLRLSCAASGFTFRTYGMHWVRQAPGKGLEWVAVIWYDGSNKHYADSVKGRFTITRDNSKNTLNLQMNSLRAEDTAVYYCARAPRYDEYLEAFDVWGQGTMVTVSS
chain 2: SYVLTQPPSVSVAPGQTARITCGGNNLGSKSVHWYQQKPGQAPVLVVYDDSDRPSWIPERFSGSNSGNTATLTISRGEAGDEADYYCQVWDSSSDHVVFGGGTKLTVL
B16 had a Kd of 129 nM.

B17: unnamed (protein)
chain 1: QMQLVESGGGVVQPGRSLRLSCAASGFTFRTYGMHWVRQAPGKGLEWVAVIWYDGSNKHYADSVKGRFTITRDNSKNTLNLQMNSLRAEDTAVYYCARAPRYDEHWEAFDVWGQGTMVTVSS
chain 2: SYVLTQPPSVSVAPGQTARITCGGNNLGSKSVHWYQQKPGQAPVLVVYDDSDRPSWIPERFSGSNSGNTATLTISRGEAGDEADYYCQVWDSSSDHVVFGGGTKLTVL
The molecule B17 returned a Kd of 170 nM.

B18: unnamed (protein)
chain 1: QMQLVESGGGVVQPGRSLRLSCAASGFTFRTYGMHWVRQAPGKGLEWVAVIWYDGSNKHYADSVKGRFTITRDNSKNTLNLQMNSLRAEDTAVYYCARSPRYDDYYEAFDVWGQGTMVTVSS
chain 2: SYVLTQPPSVSVAPGQTARITCGGNNLGSKSVHWYQQKPGQAPVLVVYDDSDRPSWIPERFSGSNSGNTATLTISRGEAGDEADYYCQVWDSSSDHVVFGGGTKLTVL
In turn, B18 returned a Kd of 186 nM.

B19: unnamed (protein)
chain 1: QMQLVESGGGVVQPGRSLRLSCAASGFTFSTFAMHWVRQAPGKGLEWVAVIWYDGSNKHYADSVKGRFTITRDNSKNTLNLQMNSLRAEDTAVYYCARAPRYDEDWEAFDVWGQGTMVTVSS
chain 2: SYVLTQPPSVSVAPGQTARITCGGNNLGSKSVHWYQQKPGQAPVLVVYDDSDRPSWIPERFSGSNSGNTATLTISRGEAGDEADYYCQVWDSSSDHVVFGGGTKLTVL
As to B19, the Kd was 894 nM.
